Measured values taken from patent US12383572B2, “Administration of an anti-activin-a compound to a subject” (AMGEN INC., priority 2013, dated 2025).

Legend:
TOV-21G xenografts = assay: TOV-21G xenograft in abdominal flank, hu-sActRIIB-Fc alone or with 5-FU: tumor growth; type: in vivo, human; settings: 52 days after tumor cell injection, versus vehicle-treated tumor-bearing group
Protocol: In another experiment, athymic nude mice received TOV-21G xenografts in the abdominal flank. After 14 days, subcutaneous hu-sActRIIB-Fc was administered weekly alone or in combination with 5-FU.

[1] = tested on: TOV-21G ovarian cancer xenografts; assay: TOV-21G xenograft growth in nude mice, activin-A antagonists alone; type: in vivo, human; settings: sActRIIB 30 mg/kg SC 1x/week, activin-A antibody 30 mg/kg SC 2x/week, from day 12, vs PBS
Protocol: TOV-21G xenograft. 5×10^6 TOV-21G ovarian cancer cells were implanted subcutaneously into individual female athymic nu/nu mice (Harlan). Treatment was initiated at day 12 after tumor implantation, when the average tumor volume reached approximately 150 mm^3. The mice received PBS, sActRIIB (30 mg/kg, SC, 1×/week) or activin-A antibody (30 mg/kg, SC, 2×/week). In a separate chemotherapy combination experiment, the mice were treated with PBS, sActRIIB (10 mg/kg, SC, 1×/week), 5-FU (50 mg/kg, IP, 3 cycles, 4 daily injections per cycle) or sActRIIB and 5-FU combination at the same doses above. For all xenograft experiments, the tumor sizes were measured longitudinally by using an electronic caliper. Immediately prior to the 1st dose, the tumor-bearing mice were randomized to ensure even distribution in tumor sizes across different groups. Tumor volumes (mm^3) were calculated as tumor length (mm)×tumor width (mm)×tumor height (mm). Tumor weights were determined by necropsy.

TOV-21G cancer cells = assay: In vitro proliferation assay (IncuCyte live cell imaging); type: cell-based, human; settings: increasing concentrations
Protocol: In vitro growth rates of TOV-21G cancer cells were analyzed by using a real-time live cell imaging system (IncuCyte) following the manufacturer's recommended protocol.

[2] = tested on: testicular tumors in inh-KO mice; assay: Testicular tumor mass by necropsy in male inh-KO mice; type: in vivo, mouse; settings: 8-week-old male inh-KO mice, single injection 30 mg/kg SC, necropsy 14 days after
Protocol: Inh-KO mice. 12-week-old female and 8-week-old male inh-KO mice with fully established ovarian or testicular tumors received a single injection of PBS or sActRIIB (30 mg/kg, SC). As a control, age-matched wild-type littermates received a single injection of PBS. Ovarian and testicular organ weights were determined by necropsy 14 days after the injection.

E-cadherin = E-cadherin Western blot and immunostaining in inh-KO ovarian tumors; type: in vivo, mouse; settings: inh-KO mice
Protocol: Protein extracts were prepared from cell cultures or tissues in T-PER tissue protein extraction reagent (Pierce) containing a mixture of protease inhibitors (Roche). A pool of 50 μg total protein for each group containing equal amounts of protein extract isolated from individual animals was separated by NuPAGE 4-12% Bis-Tris gel (Invitrogen) and transferred to PVDF. The membranes were probed with primary antibodies against total Smad2, p-Smad2 or E-cadherin (1:1000; Cell Signaling), endoglin, osteopontin (1:500; R & D Systems), IGFBP-1, IGFBP-2 (1:500; Abcam) followed by HRP-conjugated secondary antibody (1:2000; Cell Signaling). The membranes were stripped and re-probed with antibody against α-tubulin (1:1000; Cell Signaling).
Zinc-formalin fixed paraffin tumor tissue sections of 4 μm in thickness were prepared. The sections were subjected to antigen retrieval by microwave 3 min in Unmask solution (Vector H-3300) followed by incubation in 10 μg/ml Proteinase-K for 20 min and in 1% H2O2 in dH2O for 10 min at room temperature. The sections were further incubated in 0.1% Tween-20 in PBS for 3 min to permeabilize the cell membrane and in goat serum for 30 min to block non-specific binding. […] The immunostained tissue sections were analyzed and photographed using a Nikon Eclipse 90i microscope equipped with DS-Ril camera. […]

[3] = sActRIIB and doxorubicin in TOV-21G tumor-bearing nude mice: body weight and muscle mass; type: in vivo, mouse
Protocol: The objective of the present study was to examine the effect of pharmacological administration of sActRIIB, doxorubicin (dox), and sActRIIB plus doxorubicin, respectively, on body weight, tumor growth and muscle mass in nude mice implanted with TOV-21G ovarian xenograft tumors. Eight-week-old female Athymic nude mice were SC injected with 0.2 mL of 5×10^6 TOV-21G cells into the left site of the lower flank of the mice. After 10 days of tumor implantation, the mice were divided into 4 groups by body weight and tumor size and then treated with vehicle, sActRIIB, doxorubicin or the combination of sActRIIB and doxorubicin. In addition, a group of non-tumor bearing mice was used as normal control and received PBS.
Mice were weighed weekly. Body weight data were recorded longitudinally. Tumor size was measured longitudinally by using an electronic caliper. The following formula was used to calculate actual tumor volume (Tomayko M and Reynolds C, 1989): (Volume of a rectangular solid tumor: Tumor volume (mm^3)=length (mm)×width (mm)×height (mm) of tumor). At the end of the study, mice in all groups were subjected to terminal necropsy and lean carcass weight (excluding skin, adipose tissue, internal organs, and head) was determined by using standard anatomical dissection procedures. […] All results were expressed as the mean±SEM (standard error of the mean). […]

[4] = tested on: TOV-21G, BAEC, MRC-5, CCD-Lu, U937 and THP-1 cultures; assay: Real-time RT-PCR of VEGF, Ang-1 and βA in cell cultures treated with recombinant activin-A; type: cell-based; settings: sActRIIB added with recombinant activin-A
Excerpt: ID NO: 291), [NT] ID NO: 292), and TaqMan probe [NT] ID NO: 293).

B1: sActRIIB: extracellular domain of human activin type-2B receptor fused to IgG2 Fc; full length SEQ ID NO: 21 (Table 9) (protein, listed as Homo sapiens)
chain: ETRWCIYYNANWELERTNQSGLERCEGEQDKRLHCYASWRNSSGTIELVKKGCWLDDFNCYDRQECVATEENPQVYFCCCEGNFCNERFTHLPEAGGPEVTYEPPPTAPTGGGGSVECPPCPAPPVAGPSVFLFPPKPKDTLMISRTPEVTCVVVDVSHEDPEVQFNWYVDGVEVHNAKTKPREEQFNSTFRVVSVLTVVHQDWLNGKEYKCKVSNKGLPAPIEKTISKTKGQPREPQVYTLPPSREEMTKNQVSLTCLVKGFYPSDIAVEWESNGQPENNYKTTPPMLDSDGSFFLYSKLTVDKSRWQQGNVFSCSVMHEALHNHYTQKSLSLSPGK
TOV-21G xenografts
  tumor growth reduction: 43%
[1]
  growth of TOV-21G xenografts (tumor volume): significantly inhibited the growth
TOV-21G cancer cells
  TOV-21G cell proliferation in vitro: no direct effect on TOV-21G cell proliferation in vitro
[2]
  testicular tumor mass: dramatic regression of testicular tumor masses to the WT control levels
E-cadherin
  E-cadherin immunoreactivity in ovarian sections: reappearance of distinctive E-cadherin immunoreactivity
E-cadherin; single injection
  E-cadherin protein in ovarian tumors (Western blot): dramatically restored the lost E-cadherin
[3]; TOV-21G tumor-bearing nude mice, sActRIIB 10 mg/kg SC 1x/week, DOX 2 mg/kg IP 1x/week
  body weight: effectively prevented the weight loss
[3]; TOV-21G-implanted nude mice, necropsy at end of 4-week experiment
  lean carcass weight and calf muscle mass: prevented the loss in lean carcass weight and calf muscle mass
[4]
  induction of VEGF and Ang-1 mRNA by recombinant activin-A: prevented this induction of VEGF and Ang-1
  induction of βA expression by recombinant activin-A: blocked completely
